The text below walks through data of PMC8476856.

For this assay, the target named is recombinant human α1A/βIII tubulin (human) (UniProt Q71U36). The experiment in a line: in vitro microtubule dynamics assay.

What is called koff is a measure of how fast the partners let go of each other. As a reminder, the kon is a measure of how fast the partners come together. Take “recombinant human α1A/βIII tubulin (from UniProt Q71U36 1-451; Q13509 1-450) (complex)”: the critical concentration is 0.94 µM, the dissociation rate constant (koff) turned out to be 3.2 s⁻¹ and the on-rate (kon) turned out to be 3.48e+06 M⁻¹ s⁻¹.
